# Source: patent publication US20250313612A1 (Adimab, published 2025)
# B1: ADI-14563 (antibody, V domains shown)
# VH: QVQLVQSGGGLAQPGGSLRLSCAASGFIFSVYEMDWVRQAPGKGLEWLSYIDITGNSVTYADSVRGRFTISRDNARNSLYLQMDSLRVEDTAVYYCVRDSRGPTTQWLTGYFDFWGQGTTVTVSS
# VL: DIRMTQSPATLSLSPGERATLSCRASQSVSNYLAWYQQKPGQAPRLLIYDVSNRATGIPARFSGSGSGTDFTLTISSLEPEDFAVYYCQQRRNWPPLTFGGGTKVEVK
# B2: ADI-14558 (antibody, V domains shown)
# VH: QVQLVESGGGLIQPGASLRLSCGAYGFSFSSSAMSWVRQAPGKGLEWVSAISDNGGSTYYADSVQGRFTISRDNSKNTLYLQLNRLRAEDTAIYYCAKAYCSDSCHGGYFDYWGQGTLVTVSS
# VL: EIVLTQSPATLSLSPGDRATLSCRASQSVSSSFAWYQQKPGQAPRLLIYAVSNRATGIPARFSGSGSGTDFTLTISTLEPEDFAVYYCQQRSTWPLTFGPGTKVEIK
# B3: ADI-14557 (antibody, V domains shown)
# VH: QVQLQQWGAGLLKPSETLSLTCQVYGVSFSDYYWNWIRQSPGKGLEWIGDVNHIGNTDYNPSLKSRVSISVDTSKNQFSLTLRSVTAADTALYYCARGRKLFEVPPKAPDYWGQGTLVTVSS
# VL: DIVMTQSPGTLSLSPGERATLSCRASQSVSSTYLAWYQQKPGQAPRLLIYGASIRATGIPDRFSGVGSGTDFTLTISRLEPEDVAVYYCQQYGSSPQTFGQGTKVEIK
# B4: ADI-14529 (antibody, V domains shown)
# VH: EVQLVESGGGLVKPGGSLRLSCAASGFIFRNAWMSWVRQAPGKGLEWVGRIKRTSEGGSVDYATPVQGRFSISRDDSRNTLYLQMNSLETDDTAVYYCSTGPPYSYFDSSGYSVVDYWGQGTLVTVSS
# VL: QSVVTQPPSVSGTPGQRVTISCTGSSSNIGTPFDVHWYQQIPETAPKLIISGGFSRPSGVPDRFSGSQSGTSASLAISGLRSEDEGDYYCAAWDDSLSGPVFGGGTKLTVL
# notes: IgG; also called Antibody Number 89
# B5: ADI-14556 (antibody, V domains shown)
# VH: EVQLVESGGGLVQPGGSLRLSCAASGFTFRSYWMTWVRQAPGKGLEWVASINDEGNTKYYVDSLKGRFTISRDNAKNSLYLQMNSLRAEDTAVYYCARESGLPRGAFQIWGPGTMVTVSS
# VL: EIVLTQSPVTLSLSPGERATLSCRASQSVGTFLAWYQHKPGQAPRLLIYDASNRASAIPARFSGSGSGTDFTLTISSLEPEDFAVYYCQHRSDWWTFGQGTKVEIK
# B6: ADI-14528 (antibody, V domains shown)
# VH: QVQLVQSGAEVKKPGSSVKVSCKVAGGSFSNYAIAWLRQAPGQGLEWMGGIIPAFNRAMYARKFQDRVTITAYASTTTAYLDITGLRSEDTALYYCARPAGDFGDLKWVRSPFDYWGQGTLVTVSS
# VL: ETTLTQSPGTLSVSPGERATLSCRASQEVGINLAWYQQKPGQAPRLLIYGASTRATDVPARFSGSGSGTEFTLTISSLQSEDFAVYYCQEYNDWPPQLTFGPGTKVDIK
# notes: IgG; also called Antibody Number 88
# B7: ADI-14555 (antibody, V domains shown)
# VH: QVQLVQSGGGLVQPGGSLRLSCAASGLTFSSYAMSWVRQAPGKELEWVSSISESGVDTYYADSVKGRFTVSRDNSKSTLYLQMSSLGGDDTAVYYCAKAYCSNKACHGGYFDYWGQGTLVTVSS
# VL: ETTLTQSPDTLSLSPGERATLSCRASQSVRNYLAWYRQKPGQAPRLLIYDASNLATGIPARFSGSGSGTDFTLTISSLEPEDFAVYYCHQRSDWPLTFGPGTKVEIK
# B8: ADI-14548 (antibody, V domains shown)
# VH: EVQLVESGGGLVQPGGSLRLSCAASGFSFSTSWMSWVRQAPGKGLEWLANIKEDGSKKIYVDSVKGRFSISRDNAKNSLYLQMTSLRAEDTAVYYCARDVWGWELVGWLDPWGQGTLVTVSS
# VL: SYELTQPPSVSVAPGKTASITCGGSNIGSRSVHWYQQKPGQAPVLVVYEDHDRPSGIPERFSGSNSGNTATLTISRVEAGDEADYYCQVWDSSRDHVVFGGGTKVTVL
# B9: ADI-14562 (antibody, V domains shown)
# VH: EVQLVESGPEVKGPGSSVKVSCEASAATFSNYAISWVRQAPGQGLEWMGGFVPMLGTRNYAQKFKGRVTLTADVSTHTLYLEIGSLRFEDTAVYYCATVAGLGTSYGRYLESWGQGTLVTVSS
# VL: DIRMTQSPSSVSASLGDRVTITCRASQDISTALAWYQQIPGKAPKLLIYEASSLQSGVPSRFRGSGSETDFALTISSLQPEDFATYYCQQAKSFPYTFGQGTKVEIK
# B10: ADI-14527 (antibody, V domains shown)
# VH: QVQLVQSGAELKRPGSSVKVSCKASGVYLTSVAVNWVRQVPGHGFEWMGGILTGFGKVRHAQAFENRATLTADASTNTAYLELSGLQAEDTAAYYCAIIDPQDCTAASCFWVNWLDPWGQGTLVTVSS
# VL: EIVLTQSPGTLTVSPGERATLSCRASQSVLSSHLAWYQQKPGQAPRLLIYAASSRATDVPDRFSGSGSGTDFTLTISRLEPQDFAVYYCQQYGSSPITFGQGTRLEIK
# notes: IgG; also called Antibody Number 87
# B11: ADI-14545 (antibody, V domains shown)
# VH: EVQLVESGGGLVKPGGSLRLSCAASGFTFSNAWMSWVRQAPGKGLEWVGRVKSKSKGGTTHYAEAVKGRFTISRDDSKNTLYLQMQSLKTEDTAVYYCTSHAYNSDWFVTTDYYYYMDVWGKGTTVTVSS
# VL: DIVLTQSPSSLSASVGDRVTFTCRASQSISNYLNWYQQKPGKAPKVLIYGASNLLSGVPSRFIGSGSGTDFTLTINSLQPEDFATYYCQQCYSAPITFGQGTRLEIK
# B12: ADI-14550 (antibody, V domains shown)
# VH: QVQLVQSGGGVVQPGRSLRLSCAASGFTFSDYAMHWVRQAPGKGLQWVSLISYNGRKKYYADSVKGRFTISRDDSKNTLYLQMNPLRPDDTAVYYCARDGDIVAVPAAIGLDYWGQGTLVTVSS
# VL: DIVLTQSPESLAVSLGERATINCNSSQSVLYTSNNKNYLAWYQQKSGQPPKLLIYWASTRESGVPERFSGSGSGTDFTLTISSLQAEDVAVYYCQQYSSPPYTFGQGTKLEIK
# B13: ADI-14526 (antibody, V domains shown)
# VH: EVQLVESGPGLVRPSQTLSIKCSVSGGSINRGAYFWTWIRQRPGKGLEWIGSIHDTGSYYNPSLKTRVSISGDTSKNLFTLELTSLTAADTAVYYCARGRGYSYGWRYFDSWGQGTLVTVSS
# VL: SYVLTQPPSVSVSPGQTARITCSGDAFPRQYSYWYQQKAGQPPVLVILKDSERPSGIPARFSGSTSGTTVTLTITGVQAEDEADYYCQSSDSSGNYVVFGGGTKLTVL
# notes: IgG; also called Antibody Number 86
# B14: ADI-14551 (antibody, V domains shown)
# VH: QVQLQESGPGLVKPSETLSLTCSVSGGSIKRGAYFWTWIRQRPGKGLEWIGSMHDSGDYYNPSLKTRVTILGDTTKNHFTLKLTSVTVADTALYYCARGRGYSYGWRFFDNWGQGTLVTVSS
# VL: NFMLTQPPSVSVSPGHSTRITCSGDALPKQYAYWYQQKPGQAPVLIMSKDSERPSGIPERFTGSSSGTTVTLTISGVQAEDEADYYCQSGDTSGSYVVFGGGTKVTVL
# notes: IgG
# Molecular target: RSV F protein of subtype A (strain A2) on recombinant mKate-RSV (Respiratory syncytial virus subtype A …, UniProt P03420 26-574)
# Test: cell-based or functional assay
row,Binder,Neut IC50 (µg/ml) subtype A [µg/mL]
1,B1,> 10
2,B2,> 10
3,B3,> 10
4,B4,2.38
5,B5,> 10
6,B6,> 10
7,B7,> 10
8,B8,0.034
9,B9,> 10
10,B10,> 10
11,B11,0.036
12,B12,2.62
13,B13,2.36

# Molecular target: RSV F protein of subtype B (18537) on recombinant mKate-RSV (Respiratory syncytial virus subtype B …, UniProt P13843 26-574)
# Test: cell-based or functional assay
row,Binder,Neut IC50 (µg/ml) subtype B [µg/mL]
1,B1,> 10
2,B2,> 10
3,B3,> 10
4,B4,0.991
5,B5,> 10
6,B6,0.705
7,B7,> 10
8,B8,0.094
9,B9,10.5
10,B10,> 10
11,B11,0.073
12,B12,> 10
13,B13,9.67

# Molecular target: T1, RSV F ectodomain stabilized in the postfusion conformation (F ΔFP), subtype A (Respiratory syncytial virus subtype A, UniProt P03420 26-109; P03420 147-524)
# T1 construct: extracellular domain; trimer; also called Postfusion subtype A; Postfusion RSV F
# Test: BLI, IgG on AHQ sensors, 100 nM antigen
row,Binder,Kd [pM]
1,B4,1710
2,B6,35200
3,B10,889
4,B14,207
5,B13,346

# Molecular target: T2, RSV F ectodomain stabilized in the postfusion conformation (F ΔFP), subtype B (Respiratory syncytial virus subtype B, UniProt P13843 26-109; P13843 147-524)
# T2 construct: extracellular domain; trimer; also called Postfusion subtype B
# Test: BLI, IgG on AHQ sensors, 100 nM antigen
row,Binder,Kd [pM]
1,B4,798
2,B10,645
3,B14,195
4,B13,342
